Patent publication US20200181605A1 (SHANGHAI INSTITUTES FOR BIOLOGICAL SCIENCES CHINESE ACADEMY …, published 2020)

Target: T1, endogenous Brd4 protein of untargeted androgenetic haploid embryonic stem cells (NC) (mouse, UniProt Q9ESU6 1-1400, limits assumed)
T1 construct: Endogenous, untagged; a mixture of the large and small isoforms in the cell lysate; also called Brd4 large protein (about 250 kDa); Brd4 small protein (110/120 kDa)
Assay: Co-IP with Brd4 antibody-coupled beads, western blot

B1: CDK9 (enzyme, UniProt Q99J95 1-372, looked up)
chain: MAKQYDSVECPFCDEVTKYEKLAKIGQGTFGEVFKAKHRQTGQKVALKKVLMENEKEGFPITALREIKILQLLKHENVVNLIEICRTKASPYNRCKGSIYLVFDFCEHDLAGLLSNVLVKFTLSEIKRVMQMLLNGLYYIHRNKILHRDMKAANVLITRDGVLKLADFGLARAFSLAKNSQPNRYTNRVVTLWYRPPELLLGERDYGPPIDLWGAGCIMAEMWTRSPIMQGNTEQHQLALISQLCGSITPEVWPNVDKYELFEKLELVKGQKRKVKDRLKAYVRDPYALDLIDKLLVLDPAQRIDSDDALNHDFFWSDPMPSDLKGMLSTHLTSMFEYLAPPRRKGSQITQQSTNQSRNPATTNQTEFERVF
notes: Endogenous protein co-precipitated from mouse ES cell lysate
Does B1 bind?
Result: binds
